Columns and labels:
[1] = target: Microtubules (polymerized Tubulin, Triton-insoluble fraction) of HeLa cells (human (endogenous in HeLa)) (UniProt P68363); assay: Triton-X-100 extraction of soluble and insoluble (cytoskeletal) fractions, Western blot and densitometry; HeLa cells transfected with pCGN-Centaurin-α2; 0.1% Triton-X-100 in Pipes pH 6.94, EGTA, MgCl2, 2 M glycerol, 10 min at room temperature; control cells or cells treated with nocodazole (3 µg/ml, 3 h) or cold (4°C, 3 h)
[2] = target: Tubulin purified from bovine brain, polymerised to microtubules in vitro (bovine) (UniProt Q6B856); assay: co-sedimentation; as a4 (40 µM tubulin plus 5 µM Centaurin-α2, 90 minutes at 37°C), then 30 minutes of incubation on ice before centrifugation (37°C→4°C)
[3] = target: Tubulin purified from bovine brain, polymerised to microtubules in vitro (bovine) (UniProt Q6B856); assay: co-sedimentation; 40 µM tubulin plus 5 µM Centaurin-α2, 90 minutes of polymerization at 37°C in 80 mM K-PIPES pH 6.9, 2 mM EGTA, 1 mM MgCl2, 10% glycerol; 16500 g for 30 minutes; supernatant and pellet on SDS-PAGE, Coomassie, densitometry

Chain of UniProt P68363 (P68363 whole entry, chain 1 of 2): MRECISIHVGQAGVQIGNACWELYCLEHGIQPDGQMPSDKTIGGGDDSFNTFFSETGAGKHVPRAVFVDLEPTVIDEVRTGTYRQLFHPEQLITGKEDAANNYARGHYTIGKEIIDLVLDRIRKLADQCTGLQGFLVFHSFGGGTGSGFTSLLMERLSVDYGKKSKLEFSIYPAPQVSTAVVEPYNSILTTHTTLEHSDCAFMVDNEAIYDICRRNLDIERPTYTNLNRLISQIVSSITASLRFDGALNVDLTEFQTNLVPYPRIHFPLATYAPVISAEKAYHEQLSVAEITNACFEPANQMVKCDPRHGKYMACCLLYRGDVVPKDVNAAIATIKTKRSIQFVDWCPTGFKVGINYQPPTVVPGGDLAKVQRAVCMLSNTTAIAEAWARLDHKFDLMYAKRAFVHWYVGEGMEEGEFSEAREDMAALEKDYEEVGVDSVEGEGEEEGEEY
Chain of UniProt P68363 (P07437 whole entry, chain 2 of 2, further chain): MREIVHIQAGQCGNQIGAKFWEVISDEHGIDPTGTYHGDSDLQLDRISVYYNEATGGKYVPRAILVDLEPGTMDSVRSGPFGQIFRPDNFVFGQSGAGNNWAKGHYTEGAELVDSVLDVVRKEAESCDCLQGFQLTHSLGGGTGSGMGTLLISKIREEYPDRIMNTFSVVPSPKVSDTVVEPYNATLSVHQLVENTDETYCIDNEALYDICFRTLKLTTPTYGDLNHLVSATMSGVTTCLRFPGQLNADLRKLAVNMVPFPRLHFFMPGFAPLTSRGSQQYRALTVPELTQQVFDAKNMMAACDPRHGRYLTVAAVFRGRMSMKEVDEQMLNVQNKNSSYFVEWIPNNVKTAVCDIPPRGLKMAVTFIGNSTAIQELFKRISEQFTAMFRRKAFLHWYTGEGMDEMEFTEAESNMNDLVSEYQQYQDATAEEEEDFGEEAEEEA

Row | Binder | percent of Centaurin-α2 in the Triton-insoluble (MT) fraction [1] | percent of Centaurin-α2 in the MT (pellet) fraction [2] | percent of Centaurin-α2 in the MT (pellet) fraction [3]
1 | HA (hemoagglutinin)-tagged Centaurin-α2 (pCGN-Centaurin-α2) (natural protein) MGDRERNKKRLLELLRAPDTGNAHCADCGAADPDWASYKLGIFICLNCCGVHRNFPDISRVKSVRLDFWDDSIVEFMIHNGNLRVKAKFEARVPAFYYIPQANDCLVLKEQWIRAKYERREFMADGETISLPGNREGFLWKRGRDNSQFLRRKFVLLAREGLLKYFTKEQGKSPKAVISIKDLNATFQTEKIGHPHGLQITYRRDGHTRNLFVYHESGKEIVDWFNALRAARLQYLKMAFPELPESELVPFLTRNYLKQGFMEKTGPKQKEPFKKRWFALDCHERRLLYYKNPLDAFEQGQVFLGNKEQGYEAYEDLPKGIRGNRWKAGLTIVTPERRFVLTCPSEKEQQEWLESLRGVLSSPLTPLNRLTASTESGRSSR | 80% |  | 
2 | His-tagged Centaurin-α2 (recombinant, pET-Centα2) (natural protein) MGDRERNKKRLLELLRAPDTGNAHCADCGAADPDWASYKLGIFICLNCCGVHRNFPDISRVKSVRLDFWDDSIVEFMIHNGNLRVKAKFEARVPAFYYIPQANDCLVLKEQWIRAKYERREFMADGETISLPGNREGFLWKRGRDNSQFLRRKFVLLAREGLLKYFTKEQGKSPKAVISIKDLNATFQTEKIGHPHGLQITYRRDGHTRNLFVYHESGKEIVDWFNALRAARLQYLKMAFPELPESELVPFLTRNYLKQGFMEKTGPKQKEPFKKRWFALDCHERRLLYYKNPLDAFEQGQVFLGNKEQGYEAYEDLPKGIRGNRWKAGLTIVTPERRFVLTCPSEKEQQEWLESLRGVLSSPLTPLNRLTASTESGRSSR |  | 50% | 80%

From article PMC3527619
